One may read the stoichiometry N as the number of molecules, sites or subunits per partner or assembly. As usually defined, the pKd is −log10 of the Kd, conventionally taken in molar units. Higher therefore signals a small Kd.

Stoichiometry N and Kd data for three substances are collected here from paper PMC4489622.

Assay [1] concerns the target HpRF, N-terminal Rossmann fold domain of HpDprA (residues 1-212) (Helicobacter pylori strain J99) (UniProt B5ZAA1). In words: SEC; Superdex 75 HR 10/300, 1X PBS, 0.3 ml/min, 500 µl injected, protein at 2 mg/ml, apparent mass from standards. On the technique in general: In gel filtration, larger molecules generally elute earlier.
Assay [2] has the same target. In words: cross-linking; glutaraldehyde on ice, SDS-10% PAGE, silver staining; HpDprA 5 µM with 0.01% to 0.5% glutaraldehyde at 4 °C for 15 min; conditions for HpRF in the legend of Fig B in S1 File.
Assay [3] shares this target. Put plainly: SPR; BIAcore 3000; the same protein amine-coupled on a CM5 chip (~1000 RU) and injected; 25 °C, 10 mM HEPES pH 7.4, 150 mM NaCl, 1 mM EDTA, 0.05% P-20, 20 µl/min; kon from 1:1 Langmuir fit, koff from the main phase of a biphasic dissociation, Kd = koff/kon. Background: Surface plasmon resonance follows binding to a sensor surface in real time, without labels.

Assay [4] concerns the target HpDML1, C-terminal DML-1 like domain of HpDprA (residues 213-266) (Helicobacter pylori strain J99) (UniProt B5ZAA1). Put plainly: SEC; Superdex 75 HR 10/300, 1X PBS, 0.3 ml/min, 500 µl injected, protein at 8 mg/ml, apparent mass from standards.
Assay [5] has the same target. Put plainly: cross-linking; glutaraldehyde on ice, SDS-12% PAGE, silver staining; HpDML1 at 140 µM, longer incubation with the cross-linker.
Assay [6] has the same target. Put plainly: SPR; BIAcore 3000; the same protein amine-coupled on a CM5 chip (~1000 RU) and injected; 25 °C, 10 mM HEPES pH 7.4, 150 mM NaCl, 1 mM EDTA, 0.05% P-20, 20 µl/min; kon from 1:1 Langmuir fit, koff from the main phase of a biphasic dissociation, Kd = koff/kon.
Assay [7] has as its target Helicobacter pylori DNA processing protein A (HpDprA), full length, strain J99 (Helicobacter pylori strain J99) (UniProt B5ZAA1). Put plainly: SEC; Superdex 75 HR 10/300, 1X PBS, 0.3 ml/min, 500 µl injected, protein at 2 mg/ml, apparent mass from standards.
The target is the same in assay [8]. In words: cross-linking; glutaraldehyde on ice, SDS-10% PAGE, silver staining; HpDprA 5 µM with 0.01% to 0.5% glutaraldehyde at 4 °C for 15 min; conditions for HpRF in the legend of Fig B in S1 File.
The target is the same in assay [9]. Put plainly: SPR; BIAcore 3000; the same protein amine-coupled on a CM5 chip (~1000 RU) and injected; 25 °C, 10 mM HEPES pH 7.4, 150 mM NaCl, 1 mM EDTA, 0.05% P-20, 20 µl/min; kon from 1:1 Langmuir fit, koff from the main phase of a biphasic dissociation, Kd = koff/kon.

pKd: −log10 of the molar value. Where “and” joins values, the source holds several entries; their conditions need not be identical. Equal values may be shown once.

As for “HpRF, N-terminal Rossmann fold domain of HpDprA (residues 1-212) (from UniProt B5ZAA1 1-212) (domain or fragment)”, the stoichiometry N in assay [1] and in assay [2] was 2 in each case. The same substance had a pKd in assay [3] of 7.64.
With “HpDML1, C-terminal DML-1 like domain of HpDprA (residues 213-266) (from UniProt B5ZAA1 213-266) (domain or fragment)”, the stoichiometry N in assay [4] and in assay [5] was 2 each time. Besides, the pKd in assay [6] is 5.63.
“Helicobacter pylori DNA processing protein A (HpDprA), full length, strain J99 (from UniProt B5ZAA1 1-266) (natural protein)”: the stoichiometry N in [7] was 2; in assay [8] it was 2 and 3. This substance had a pKd in assay [9] of 7.65.
